Results on 5 molecules are retold here after publication PMC4109916.

Assay [1] deals with Recombinant Protein A (SpA) (staphylococcal (species not stated)) (UniProt P38507). The experiment in a line: ELISA; competition: wells coated with mKate-IgGBP or SpA; 1:4000 dIgG-HRP co-incubated with increasing concentrations of unlabeled IgG, 1 hr at room temperature, 3% BSA in PBS-T; IC50 from a one-site LogIC50 fit. In general terms: In an ELISA, binding on a coated surface is turned into a signal by an enzyme label.

The target of assay [2] is hIgG1-TAMRA (labeled human IgG1) (human). The experiment in a line: flow cytometry on cells; same competition experiment as a5 (1 µM hIgG1-TAMRA, MDCK hFcRn-EYFP/hβ2m cells, 1 hr at 37°C, pH 6); pair of the soluble competitor mKate-IgGBP with the labeled hIgG1 that it binds. In general terms: In flow cytometry, cells or beads pass a laser one at a time.
Assay [3] concerns the target Human IgG1 (Avastin, bevacizumab) (human).
The target is the same in assay [4]. The experiment in a line: SPR; pH 6. In general terms: In SPR one partner is held on a chip, and binding of the other changes the refractive index at the surface.
Assay [5] has the same target. This is another data set of the same source.
Assay [6] shares this target. The experiment in a line: SPR; pH 7.4.
The target of assay [7] is human neonatal Fc receptor hFcRn-EYFP/hβ2m on MDCK cells (human) (UniProt P55899). The assay is described as follows: flow cytometry on cells; competition: MDCK hFcRn-EYFP/hβ2m cells with 1 µM hIgG1-TAMRA and increasing unlabeled competitor, 1 hr at 37°C, pH 6 (HBSS, 1% ovalbumin, 50 mM MES); read-out is % hIgG1 accumulation (binding and FcRn-dependent endocytosis); pairs with the receptor on cells.

Assay [8] deals with mKate-IgGBP (monomeric Katushka modified at its C-terminus with the IgG-Fc binding peptide). The experiment in a line: ELISA; competition: wells coated with mKate-IgGBP or SpA; 1:4000 dIgG-HRP co-incubated with increasing concentrations of unlabeled IgG, 1 hr at room temperature, 3% BSA in PBS-T; IC50 from a one-site LogIC50 fit.

UniProt P55899, sequence (P55899 24-365, chain 1 of 2): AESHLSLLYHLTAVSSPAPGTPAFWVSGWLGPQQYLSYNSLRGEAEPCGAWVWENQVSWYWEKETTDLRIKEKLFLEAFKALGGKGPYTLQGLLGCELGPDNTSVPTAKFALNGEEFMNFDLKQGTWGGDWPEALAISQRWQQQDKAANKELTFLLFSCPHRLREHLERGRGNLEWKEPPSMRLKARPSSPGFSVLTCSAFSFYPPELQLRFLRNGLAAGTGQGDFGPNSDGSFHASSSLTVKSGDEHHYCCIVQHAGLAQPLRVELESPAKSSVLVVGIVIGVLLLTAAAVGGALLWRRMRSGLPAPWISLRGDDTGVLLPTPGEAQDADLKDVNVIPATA
UniProt P55899, sequence (P61769 21-119, chain 2 of 2, further chain): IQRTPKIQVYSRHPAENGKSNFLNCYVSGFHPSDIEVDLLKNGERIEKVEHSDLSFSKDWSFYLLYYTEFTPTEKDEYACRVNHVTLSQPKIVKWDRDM

What is called IC50 is the concentration that gives 50% inhibition. Take “Human IgG1 (Avastin, bevacizumab) (antibody)”: the IC50 in assay [1] worked out at 22 nM.

Usually Kd stands for a measure of binding affinity in units of concentration. Usually koff stands for the rate constant with which the complex falls apart. For orientation: kon means a measure of how fast the partners come together. With “mKate-IgGBP (monomeric Katushka modified at its C-terminus with the IgG-Fc binding peptide) (designed binder)”, the IC50 in assay [2] turned out to be 700 nM. In assay [3], this molecule showed a fold extension of the plasma half-life of mKate-IgGBP co-dosed 1:1 mol with labeled hIgG1 in hFcRn Tg mice, against mKate-IgGBP dosed without hIgG1 of 16 fold. In assay [4], this molecule gave a Kd of 19 nM, a koff of 0.0053 s⁻¹ and a kon of 270000 M⁻¹ s⁻¹. The molecule also yielded a plasma half-life of mKate-IgGBP (10 mg/kg i.v.) in hFcRn Tg mice pre-dosed with 500 mg/kg hIgG1 in assay [5] of 8 h. In addition, in assay [6], the Kd was 40 nM, the koff is 0.0042 s⁻¹ and the kon turned out to be 110000 M⁻¹ s⁻¹.

In the case of “mouse IgG2a (CI.18 isotype control) (antibody)”, the IC50 in assay [1] turned out to be 61 nM.

For “mouse IgG2b (MPC-11 isotype control) (antibody)”, in assay [1], the IC50 came out at 54 nM.

B1: Human IgG1 (Avastin, bevacizumab) (antibody, V domains shown)
VH: EVQLVESGGGLVQPGGSLRLSCAASGYTFTNYGMNWVRQAPGKGLEWVGWINTYTGEPTYAADFKRRFTFSLDTSKSTAYLQMNSLRAEDTAVYYCAKYPHYYGSSHWYFDVWGQGTLVTVSS
VL: DIQMTQSPSSLSASVGDRVTITCSASQDISNYLNWYQQKPGKAPKVLIYFTSSLHSGVPSRFSGSGSGTDFTLTISSLQPEDFATYYCQQYSTVPWTFGQGTKVEIK
For the molecule B1, the IC50 in assay [7] was 2800 nM; in assay [8], 2.4 nM.
